{"source": "patent US20260193255A1", "about": "“7-AZAINDOLE COMPOUNDS, PREPARATION METHOD THEREFOR, AND USE THEREOF” (Fudan University, priority 2022, published 2026)", "origin": "cited, not measured here", "tested_on": "cachectic patients", "details": "30 mg/kg, Phase II; cited from earlier work"}
{"molecule": "Bimagrumab: antibody inhibitor of ActRIIB under development by Novartis (antibody, chains of the INN, looked up, V domains shown) VH: QVQLVQSGAEVKKPGASVKVSCKASGYTFTSSYINWVRQAPGQGLEWMGTINPVSGSTSYAQKFQGRVTMTRDTSISTAYMELSRLRSDDTAVYYCARGGWFDYWGQGTLVTVSS VL: QSALTQPASVSGSPGQSITISCTGTSSDVGSYNYVNWYQQHPGKAPKLMIYGVSKRPSGVSNRFSGSKSGNTASLTISGLQAEDEADYYCGTFAGGSYYGVFGGGTKLTVL", "values": [{"measurement": "Increase of muscle volume", "value": "5.0-7.8%"}]}
